Assay results from the Human Domainome abundance scans (Beltran et al. 2025).
± gives the uncertainty stated by the source.

B1: Serine/threonine-protein kinase A-Raf, residues 21 to 89; numbered along this chain, P10398 (parent)
chain: VKVYLPNKQRTVVTVRDGMSVYDSLDKALKVRGLNQDCCVVYRLIKGRKTVTAWDTAIAPLDGEELIVE

Variants of: B1
Test: abundance fitness (aPCA) (normalised: wild type 0, dead -1); higher = more abundant; growth selection in yeast, the domain comes from the species named
Settings: Homo sapiens

K27R and K27Q are within error of each other in abundance fitness: -0.046 ± 0.2 for the first, -0.39 ± 0.37 for the second.

Going from Q36M to Q36D, the abundance fitness falls from -0.18 ± 0.082 to -0.582 ± 0.31.

Q36Y and Q36E are within error of each other in abundance fitness: -0.169 ± 0.17 for the first, -0.485 ± 0.3 for the second.

Q36K and Q36F are within error of each other in abundance fitness: 0.046 ± 0.15 for the first, -0.134 ± 0.12 for the second.

Going from Q36N to Q36R, the abundance fitness rises from -0.574 ± 0.22 to 0.058 ± 0.083.

Q36T and Q36V are within error of each other in abundance fitness: -0.162 ± 0.069 for the first, -0.028 ± 0.065 for the second.

Q36I and Q36C are within error of each other in abundance fitness: -0.043 ± 0.12 for the first, -0.206 ± 0.12 for the second.

Compared with Q36S, Q36L is lower in abundance fitness: -0.178 ± 0.072 for the first, -0.335 ± 0.072 for the second.

Compared with Q36H, Q36P is higher in abundance fitness: -0.203 ± 0.077 for the first, -0.03 ± 0.067 for the second.

First: Q36A
Second: Q36G
The abundance fitness of the first is higher: -0.043 ± 0.071 for the first, -0.398 ± 0.09 for the second.

Going from D37L to D37G, the abundance fitness rises from -0.567 ± 0.089 to -0.219 ± 0.061.

D37I and D37A are the same in abundance fitness: -0.39 ± 0.26 for the first, -0.39 ± 0.097 for the second.

D37E and D37C are within error of each other in abundance fitness: -0.141 ± 0.15 for the first, -0.273 ± 0.098 for the second.

Going from D37P to D37Q, the abundance fitness rises from -0.662 ± 0.26 to 0.14 ± 0.15.

First: D37N
Second: D37M
The abundance fitness of the first is higher: -0.186 ± 0.15 for the first, -0.499 ± 0.098 for the second.

D37H and D26W are within error of each other in abundance fitness: -0.097 ± 0.1 for the first, -0.113 ± 0.061 for the second.

D26Y and D26S are within error of each other in abundance fitness: -0.182 ± 0.14 for the first, -0.113 ± 0.069 for the second.

Compared with D26T, D26R is higher in abundance fitness: -0.277 ± 0.12 for the first, 0.023 ± 0.051 for the second.

Compared with D26V, D26Q is higher in abundance fitness: -0.065 ± 0.051 for the first, 0.179 ± 0.098 for the second.

G33D and G33S are within error of each other in abundance fitness: -0.416 ± 0.2 for the first, -0.525 ± 0.089 for the second.

G33A and G33V are within error of each other in abundance fitness: -0.546 ± 0.12 for the first, -0.573 ± 0.069 for the second.

G33T and G33Y are within error of each other in abundance fitness: -0.626 ± 0.2 for the first, -0.894 ± 0.32 for the second.

Compared with G33L, G33M is higher in abundance fitness: -0.942 ± 0.2 for the first, -0.037 ± 0.091 for the second.

G33P and G33R are within error of each other in abundance fitness: -0.953 ± 0.24 for the first, -0.712 ± 0.081 for the second.

G33E and G33N are within error of each other in abundance fitness: -0.26 ± 0.22 for the first, -0.473 ± 0.14 for the second.

G33Q and G33K are within error of each other in abundance fitness: -0.576 ± 0.12 for the first, -0.41 ± 0.16 for the second.

First: G33C
Second: R32T
The abundance fitness of the first is lower: -0.694 ± 0.2 for the first, -0.2 ± 0.08 for the second.

First: R32G
Second: R32Y
The abundance fitness of the first is lower: -0.298 ± 0.053 for the first, -0.012 ± 0.19 for the second.

Going from R32Q to R32P, the abundance fitness falls from 0.065 ± 0.044 to -0.59 ± 0.19.

R32C and R32S are within error of each other in abundance fitness: -0.162 ± 0.21 for the first, -0.141 ± 0.058 for the second.

First: R32K
Second: R32L
The abundance fitness of the first is lower: -0.369 ± 0.068 for the first, 0.046 ± 0.07 for the second.

Going from R32D to R32A, the abundance fitness rises from -0.487 ± 0.34 to 0.088 ± 0.063.

Going from R32E to R32M, the abundance fitness rises from -0.193 ± 0.045 to 0.12 ± 0.06.

R32F and R32I are within error of each other in abundance fitness: -0.009 ± 0.26 for the first, 0.188 ± 0.13 for the second.

First: R32V
Second: R32W
The abundance fitness of the first is higher: 0.019 ± 0.055 for the first, -0.203 ± 0.057 for the second.

R32H and R32N are within error of each other in abundance fitness: 0.1 ± 0.18 for the first, 0.141 ± 0.13 for the second.

L34H and L34R are within error of each other in abundance fitness: -0.789 ± 0.22 for the first, -1 ± 0.12 for the second.

L34S and L34T are within error of each other in abundance fitness: -0.835 ± 0.17 for the first, -1.05 ± 0.23 for the second.

Compared with L34Y, L34M is higher in abundance fitness: -0.459 ± 0.22 for the first, -0.135 ± 0.059 for the second.

Going from L34F to L34W, the abundance fitness falls from -0.074 ± 0.14 to -0.27 ± 0.055.

L34V and L34A are within error of each other in abundance fitness: -1 ± 0.15 for the first, -1.02 ± 0.17 for the second.

Going from L34C to L34G, the abundance fitness falls from -0.644 ± 0.13 to -1.1 ± 0.15.

Compared with L34P, N35V is higher in abundance fitness: -0.833 ± 0.15 for the first, -0.161 ± 0.053 for the second.

First: N35R
Second: N35P
The abundance fitness of the first is higher: -0.101 ± 0.04 for the first, -0.754 ± 0.15 for the second.

First: N35L
Second: N35W
The abundance fitness of the first is higher: -0.32 ± 0.044 for the first, -0.866 ± 0.15 for the second.

N35M and N35H are within error of each other in abundance fitness: -0.321 ± 0.081 for the first, -0.415 ± 0.37 for the second.

Going from N35E to N35F, the abundance fitness falls from 0.016 ± 0.068 to -0.449 ± 0.18.

N35G and N35A are within error of each other in abundance fitness: -0.154 ± 0.041 for the first, -0.188 ± 0.066 for the second.

N35T and N35Y are within error of each other in abundance fitness: 0.025 ± 0.064 for the first, -0.019 ± 0.21 for the second.

First: N35Q
Second: N35I
The abundance fitness of the first is higher: -0.221 ± 0.069 for the first, -0.682 ± 0.19 for the second.

N35D and N35K are within error of each other in abundance fitness: -0.132 ± 0.12 for the first, -0.063 ± 0.086 for the second.

A28T and A28E are within error of each other in abundance fitness: -0.206 ± 0.098 for the first, -0.195 ± 0.13 for the second.

A28P and A28D are within error of each other in abundance fitness: -0.15 ± 0.083 for the first, -0.371 ± 0.14 for the second.

Going from A28Q to A28C, the abundance fitness rises from -0.438 ± 0.096 to -0.223 ± 0.11.

First: A28G
Second: A28S
The abundance fitness of the first is lower: -0.78 ± 0.09 for the first, -0.263 ± 0.067 for the second.

Going from A28L to A28Y, the abundance fitness falls from 0.029 ± 0.044 to -0.274 ± 0.14.

A28F and A28I are within error of each other in abundance fitness: -0.122 ± 0.27 for the first, -0.271 ± 0.29 for the second.

Compared with A28V, A28W is lower in abundance fitness: 0.1 ± 0.042 for the first, -0.425 ± 0.048 for the second.

First: A28M
Second: A28R
The abundance fitness of the first is higher: -0.037 ± 0.087 for the first, -1.06 ± 0.14 for the second.

Compared with K30L, K30Q is higher in abundance fitness: -0.561 ± 0.087 for the first, -0.217 ± 0.063 for the second.

Going from K30E to K30R, the abundance fitness rises from -0.336 ± 0.088 to -0.006 ± 0.032.

First: K30H
Second: K30M
The abundance fitness of the first is lower: -0.83 ± 0.29 for the first, -0.288 ± 0.097 for the second.

Going from K30S to K30F, the abundance fitness falls from -0.265 ± 0.075 to -0.574 ± 0.12.

Going from K30G to K30P, the abundance fitness falls from -0.426 ± 0.053 to -0.957 ± 0.19.

First: K30W
Second: K30C
The abundance fitness of the first is lower: -0.969 ± 0.15 for the first, -0.583 ± 0.13 for the second.

Compared with K30Y, K30T is higher in abundance fitness: -0.403 ± 0.13 for the first, -0.152 ± 0.095 for the second.

K30N and K30I are within error of each other in abundance fitness: -0.478 ± 0.29 for the first, -0.63 ± 0.47 for the second.

First: K30V
Second: K30A
The abundance fitness of the first is lower: -0.713 ± 0.094 for the first, -0.218 ± 0.047 for the second.

L29N and L29T are within error of each other in abundance fitness: -0.607 ± 0.25 for the first, -0.845 ± 0.2 for the second.

Compared with L29W, L29F is higher in abundance fitness: -0.601 ± 0.07 for the first, -0.191 ± 0.13 for the second.

L29I and L29A are within error of each other in abundance fitness: -0.907 ± 0.34 for the first, -0.933 ± 0.18 for the second.

L29Q and L29V are within error of each other in abundance fitness: -0.913 ± 0.23 for the first, -0.806 ± 0.095 for the second.

L29G and L29E are within error of each other in abundance fitness: -0.941 ± 0.11 for the first, -0.947 ± 0.13 for the second.

L29R and L29P are within error of each other in abundance fitness: -0.969 ± 0.099 for the first, -0.958 ± 0.096 for the second.

Going from L29M to L29S, the abundance fitness falls from 0.191 ± 0.058 to -0.558 ± 0.072.

First: L29C
Second: V31L
The abundance fitness of the first is lower: -0.995 ± 0.3 for the first, 0.005 ± 0.046 for the second.

V31N and V31M are within error of each other in abundance fitness: -0.073 ± 0.17 for the first, -0.045 ± 0.082 for the second.

V31R and V31K are within error of each other in abundance fitness: 0.004 ± 0.046 for the first, -0.042 ± 0.079 for the second.

Going from V31Y to V31T, the abundance fitness rises from -0.278 ± 0.15 to 0.015 ± 0.08.

V31P and V31D are within error of each other in abundance fitness: -0.41 ± 0.1 for the first, -0.265 ± 0.25 for the second.

First: V31A
Second: V31F
The abundance fitness of the first is higher: 0.111 ± 0.056 for the first, -0.187 ± 0.12 for the second.

Going from V31W to V31I, the abundance fitness rises from -0.305 ± 0.072 to -0.076 ± 0.07.

First: V31G
Second: V31E
The abundance fitness of the first is lower: -0.086 ± 0.04 for the first, 0.066 ± 0.067 for the second.

For V31C, the abundance fitness was -0.103 ± 0.086.
